According to patent US6767720 (VLAAMS INTERUNIVERSITAIR INSTITUUT VOOR BIOTECHNOLOGIE VZW, dated 2004):

T1: ANC-2H01 initial two-hybrid clone (part of ANC-2H01 fused to the GAL4-AD, plasmid pGAD10ANC2H01) (human, UniProt Q9UID6 27-485)
T1 construct: 27-485 is derived from 459 of 485 residues; also called ANC-2H01 clone; initial ANC-2H01 two-hybrid clone
T1 sequence: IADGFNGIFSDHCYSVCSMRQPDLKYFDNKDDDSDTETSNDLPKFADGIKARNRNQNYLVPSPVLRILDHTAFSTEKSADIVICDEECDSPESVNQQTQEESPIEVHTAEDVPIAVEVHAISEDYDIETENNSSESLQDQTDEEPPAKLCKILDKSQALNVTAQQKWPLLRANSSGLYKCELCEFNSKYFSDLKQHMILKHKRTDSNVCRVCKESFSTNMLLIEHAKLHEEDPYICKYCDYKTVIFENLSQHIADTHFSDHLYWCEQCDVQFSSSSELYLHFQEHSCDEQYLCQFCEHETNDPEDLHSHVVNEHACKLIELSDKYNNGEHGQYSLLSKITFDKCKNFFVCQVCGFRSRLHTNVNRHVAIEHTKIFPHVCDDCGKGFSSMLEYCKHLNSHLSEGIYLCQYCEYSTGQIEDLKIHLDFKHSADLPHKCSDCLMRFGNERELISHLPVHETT

B1: about full-length ANC-2H01 fused to the GAL4-AD (plasmid pGAD424ANC-2H01-FL) (other, not shown: large carriers)
chain: MNEYPKKRKRKTLHPSRYSDSSGISRIADGFNGIFSDHCYSVCSMRQPDLKYFDNKDDDSDTETSNDLPKFADGIKARNRNQNYLVPSPVLRILDHTAFSTEKSADIVICDEECDSPESVNQQTQEESPIEVHTAEDVPIAVEVHAISEDYDIETENNSSESLQDQTDEEPPAKLCKILDKSQALNVTAQQKWPLLRANSSGLYKCELCEFNSKYFSDLKQHMILKHKRTDSNVCRVCKESFSTNMLLIEHAKLHEEDPYICKYCDYKTVIFENLSQHIADTHFSDHLYWCEQCDVQFSSSSELYLHFQEHSCDEQYLCQFCEHETNDPEDLHSHVVNEHACKLIELSDKYNNGEHGQYSLLSKITFDKCKNFFVCQVCGFRSRLHTNVNRHVAIEHTKIFPHVCDDCGKGFSSMLEYCKHLNSHLSEGIYLCQYCEYSTGQIEDLKIHLDFKHSADLPHKCSDCLMRFGNERELISHLPVHETT
B2: lamin C fused to the GAL4 DNA binding domain (plasmid pLAM5′) (other, UniProt P04386 1-147, looked up)
chain: MKLLSSIEQACDICRLKKLKCSKEKPKCAKCLKNNWECRYSPKTKRSPLTRAHLTEVESRLERLEQLFLLIFPREDLDMILKMDSLQDIKALLTGLFVQDNVNKDAVTDRLASVETDMPLTLRQHRISATSSSEESSNKGQRQLTVSSEEVVSREVSGIKAAYEAELGDARKTLDSVAKERARLQLELSKVREEFKELKARNTKKEGDLIAAQARLKDLEALLNSKEAALSTALSEKRTLEGELHDLRGQVAKLEAALGEAKKQLQDEMLRRVDAENRLQTMKEELDFQKNIYSEELRETKRRHETRLVEID
notes: Irrelevant control protein

Experiments:
[1] = biological target: T2, human αE-catenin fused to the GAL4-DBD (plasmid pGBT9αECTN) (human, UniProt P04386 1-147; P35221 1-906, limits assumed); test: yeast two-hybrid, strain Y190, HIS3 and LacZ reporters (FIG. 11)
T2 construct: also called full-length αE-catenin
Procedure: The plates contained the medium composition indicated at the left completed with 40 mM 3-AT and 80 mg/ml X-gal. GAL4-AD=GAL4 transcription activation domain; GAL4-DBD=GAL4 DNA-binding domain; −LT=SD medium lacking Leu and Trp; −LTH=SD medium lacking Leu, Trp and His. pVA3 and pTD1 are plasmids used as a positive control in the two-hybrid system (Matchmaker™, Clontech).

[2] = biological target: T1, ANC-2H01 initial two-hybrid clone (part …); test: yeast two-hybrid, strain HF7c, HIS3 and LacZ reporters
Procedure: The HF7c yeast strain carries two reporter genes, HIS3 and LacZ, both integrated into the yeast genome and under the control of GAL4 responsive elements, respectively, the GAL1 UAS and the UAS_G-17mer. It has also two auxotrophic markers, trp1 and leu2, which are used for plasmid selection upon transformation. Yeast cultures were grown at 30° C. in either complete YPD medium (1% yeast extract, 2% peptone and 2% glucose) or in SD minimal medium (0.5% yeast nitrogen base without amino acids, 2% glucose, and 1% of the appropriate amino acid drop out solution).
The isolated two-hybrid clone was retransformed into the HF7c strain.

| Binder | binding result [1] | binding result [2] |
| --- | --- | --- |
| B1 | no binding | – |
| B2 | – | no binding |
